In patent US20100093618A1:

Biological target: FLAG-Tat (p3XFLAG-CMV-Tat, wild type) (HIV-1) (UniProt P04608)
Test: cell-based or functional assay

For “HA-IκB-α 72-287 (pCMV4-HA-IκB-α 72-287, expressed in transfected cells) (from UniProt P25963 72-287)”, the translocation of Tat from the nucleus to the cytoplasm (confocal microscopy, HeLa cells) (% of the analyzed cells) was 50.
